Experimental data as given in patent US20160030544A1.

Molecular target: fH6-7 (factor H CCP domains 6-7) (UniProt P08603)
Test: SPR, Biacore 3000, protein on CM5 chip, fH6-7 as analyte

fH6-7 (factor H CCP domains 6-7), sequence (P08603 321-443 limits assumed): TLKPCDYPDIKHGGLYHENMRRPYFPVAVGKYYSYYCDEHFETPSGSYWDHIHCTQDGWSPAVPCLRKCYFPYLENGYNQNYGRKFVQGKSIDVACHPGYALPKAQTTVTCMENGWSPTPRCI

V3.45 fHbp (variant 3 factor H binding protein of N. meningitidis), recombinant wild type
Kd: 1 nM
